Test results taken from patent publication US20230348607A1 (EXELIXIS, published 2023).

Tests used:
[1] = target: T1, rat AMHR-II-ECD-Fc (rat, UniProt Q62893 18-144); experiment: ELISA, 100 ng per well coated Fc fusion, serially diluted 4A3
T1 construct: extracellular domain; Bought reagent (R&D Systems); also called rat AMHR-II receptor; not shown: Fc part of the bought fusion protein (R&D Systems)
T1 sequence (looked up): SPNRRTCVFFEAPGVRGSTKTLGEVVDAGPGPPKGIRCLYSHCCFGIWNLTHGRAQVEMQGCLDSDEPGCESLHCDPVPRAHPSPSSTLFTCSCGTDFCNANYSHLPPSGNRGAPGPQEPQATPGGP
Protocol: (§1) The binding capacity of the anti-AMHR-II 4A3 antibody was evaluated by ELISA. ELISA plates (96 wells, Maxisorp, Nunc) were coated overnight at +4° C. with 100 ng per well of human AMHR-II-ECD-Fc, rat AMHR-II-ECD-Fc or human ALK3-ECD-Fc (R&D Systems).
(§2) Coated plates were blocked with PBS-BSA 2% for 1 hour at 37° C. and washed three times with PBS-Tween20 0.05%. The anti-AMHR-II 4A3 antibody was serially diluted in PBST-BSA1% and incubated for 1 hour at 37° C. The bound anti-AMHR-II 4A3 was detected by adding HRP-conjugated F(ab′)2 goat anti-human F(ab′)2 fragment specific (Interchim) diluted at 1:10000 and incubated for one hour at 37° C. Revelation was done with TMB (Sigma) and the reaction was stopped by adding H₂SO₄ 1N (v:v). Absorbances were measured at 450 nm and binding data curves were analysed using GraphPad Prism 8 software.

[2] = target: T2, human ALK3-ECD-Fc (human, UniProt P36894 24-152); experiment: as above
T2 construct: extracellular domain; Bought reagent (R&D Systems), used as negative control; also called human ALK3 receptor; negative control; not shown: Fc part of the bought fusion protein (R&D Systems)
T2 sequence (P36894 24-152): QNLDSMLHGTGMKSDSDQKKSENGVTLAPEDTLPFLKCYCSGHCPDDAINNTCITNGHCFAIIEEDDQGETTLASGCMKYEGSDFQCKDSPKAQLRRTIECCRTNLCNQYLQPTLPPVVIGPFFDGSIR
Protocol: as §1, §2

[3] = target: T3, human AMHR-II-ECD-Fc (human, UniProt Q16671 18-149); experiment: ELISA, coated human AMHR-II-ECD-Fc, detection with HRP anti-human F(ab')2
T3 construct: Bought reagent (R&D Systems); Only its extracellular domain stood in the assay; also called extracellular domain of human AMHR-II receptor; not shown: Fc part of the bought fusion protein (R&D Systems)
Protocol: as §1, §2

[4] = target: T4, human AMHR-II receptor expressed at the surface of the COV434-AMHR-II transfected cell line (human, UniProt Q16671 18-573); experiment: flow cytometry on COV434 AMHR-II transfected cells, 67 nM to 0.2 pM, one-site specific binding fit
T4 sequence: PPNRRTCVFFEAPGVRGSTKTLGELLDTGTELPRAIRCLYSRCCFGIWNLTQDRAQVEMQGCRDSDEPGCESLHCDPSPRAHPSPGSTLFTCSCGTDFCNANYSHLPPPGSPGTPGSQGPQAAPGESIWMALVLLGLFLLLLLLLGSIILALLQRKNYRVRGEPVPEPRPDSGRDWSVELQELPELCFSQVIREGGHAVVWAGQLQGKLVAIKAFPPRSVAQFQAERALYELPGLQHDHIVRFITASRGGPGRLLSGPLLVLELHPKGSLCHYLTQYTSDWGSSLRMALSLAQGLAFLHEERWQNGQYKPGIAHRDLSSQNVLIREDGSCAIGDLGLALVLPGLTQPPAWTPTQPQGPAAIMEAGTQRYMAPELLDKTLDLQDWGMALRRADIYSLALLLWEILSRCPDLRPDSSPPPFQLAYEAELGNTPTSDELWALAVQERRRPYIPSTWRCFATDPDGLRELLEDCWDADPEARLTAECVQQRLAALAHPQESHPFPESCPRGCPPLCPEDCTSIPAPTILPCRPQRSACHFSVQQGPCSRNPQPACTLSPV
Protocol: For Fluorescent-activated cell sorting (FACS) analysis, 3×10⁵ cells were incubated for 1 hour at 4° C. with 10 μg/ml of 4A3 antibody (FIG. 2A) or with a range of 4A3 concentrations (from 67 nM to 0.2 pM, FIG. 2B). After washes, Phycoerythrin-conjugated anti-human IgG antibody (1:200, Interchim) was added for 1 hour at 4° C. FACS analysis of the resuspended cells was done on a BD Accuri™ C6 flow cytometer (BD Bioscience). Binding affinity were determined using GraphPad Prism 8 with “one-site specific binding” fit equation.

B1: anti-AMHR-II 4A3 antibody (antibody, human IgG1, lambda, V domains shown)
VH: EVQLVESGGSLVKPGGSLRLSCAASGFTFSNNAMNWVRQAPGKGLEWISYISGSSRYISYADFVKGRFTISRDNAKNSLYLQMNSLRAEDTAVYYCVRSSDDYFGGGMDVWGRGTLVTVSS
VL: QSVLTQPASVSGSPGQSITISCAGTSSDVGGDNDVSWYQQHPGKAPKLMIYYDSYRPSGVSNRFSGSKSGNTASLTISGLQAEDEADYYCSSSTYYSTRVFGGGTKLTVLG
notes: The tie is therefore indirect; 4A3 was detected with anti-human F(ab')2 and anti-human IgG secondary reagents; also called antibody 4A3; 4A3 antagonist antibody
binding result [1]: no binding
binding result [2]: no binding
EC50 [3]: 6 nM
Kd [4]: 2.1 nM
